Assay results from patent US20170166895.

Target: Complement component 3 (C3) (Homo sapiens) (UniProt P01024+P01024)
Experiment: filter
Conditions: 3'-3' idT
[1] = all U in listing = NapdU, SB18T0.01, 37C
[2] = all U = NapdU, T = dT, SB18T0.01, 37C

Chain of Complement component 3 (C3) (Homo sapiens) (P01024 23-667, chain 1 of 2): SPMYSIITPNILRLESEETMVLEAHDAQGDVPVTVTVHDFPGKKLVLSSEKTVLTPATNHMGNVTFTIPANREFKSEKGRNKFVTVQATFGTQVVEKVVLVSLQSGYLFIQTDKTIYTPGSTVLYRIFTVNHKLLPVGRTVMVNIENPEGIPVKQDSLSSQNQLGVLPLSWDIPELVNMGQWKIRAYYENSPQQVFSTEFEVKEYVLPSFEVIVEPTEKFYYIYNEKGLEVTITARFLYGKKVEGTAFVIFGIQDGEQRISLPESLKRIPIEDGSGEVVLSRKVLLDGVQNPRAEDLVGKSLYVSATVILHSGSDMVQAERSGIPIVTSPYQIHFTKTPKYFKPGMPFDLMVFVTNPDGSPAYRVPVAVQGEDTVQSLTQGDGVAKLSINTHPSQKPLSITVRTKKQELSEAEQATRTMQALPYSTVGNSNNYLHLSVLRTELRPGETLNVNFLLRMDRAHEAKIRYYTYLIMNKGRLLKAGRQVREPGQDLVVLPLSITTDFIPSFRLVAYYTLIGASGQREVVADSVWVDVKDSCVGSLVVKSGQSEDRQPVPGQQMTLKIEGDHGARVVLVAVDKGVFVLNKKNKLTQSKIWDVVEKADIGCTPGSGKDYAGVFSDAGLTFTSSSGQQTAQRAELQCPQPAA
Chain of Complement component 3 (C3) (Homo sapiens) (P01024 672-1663, chain 2 of 2): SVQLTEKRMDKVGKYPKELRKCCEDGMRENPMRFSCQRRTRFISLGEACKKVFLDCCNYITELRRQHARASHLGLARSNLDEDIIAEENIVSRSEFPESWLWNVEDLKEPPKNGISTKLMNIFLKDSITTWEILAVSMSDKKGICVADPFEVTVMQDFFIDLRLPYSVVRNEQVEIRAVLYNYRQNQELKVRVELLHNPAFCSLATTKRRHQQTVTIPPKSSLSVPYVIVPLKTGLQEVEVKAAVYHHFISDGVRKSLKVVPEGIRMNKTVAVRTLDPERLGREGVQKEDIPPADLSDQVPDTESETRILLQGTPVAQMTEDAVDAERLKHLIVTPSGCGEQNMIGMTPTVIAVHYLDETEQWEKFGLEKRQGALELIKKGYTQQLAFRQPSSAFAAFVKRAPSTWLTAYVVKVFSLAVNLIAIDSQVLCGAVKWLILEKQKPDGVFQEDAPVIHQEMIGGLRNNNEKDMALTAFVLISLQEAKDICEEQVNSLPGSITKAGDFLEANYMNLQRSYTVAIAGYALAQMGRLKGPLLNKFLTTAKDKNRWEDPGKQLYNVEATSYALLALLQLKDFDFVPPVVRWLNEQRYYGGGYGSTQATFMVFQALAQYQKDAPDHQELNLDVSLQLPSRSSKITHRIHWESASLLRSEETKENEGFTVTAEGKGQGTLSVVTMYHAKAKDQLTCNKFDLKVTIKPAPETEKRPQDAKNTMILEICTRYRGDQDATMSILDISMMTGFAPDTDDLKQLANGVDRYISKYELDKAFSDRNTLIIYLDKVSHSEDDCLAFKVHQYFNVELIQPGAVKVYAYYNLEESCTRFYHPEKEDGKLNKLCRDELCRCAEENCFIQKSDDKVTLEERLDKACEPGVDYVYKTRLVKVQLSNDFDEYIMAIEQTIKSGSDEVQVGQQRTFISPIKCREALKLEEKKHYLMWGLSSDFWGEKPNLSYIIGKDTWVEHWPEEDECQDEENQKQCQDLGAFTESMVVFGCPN

## CGGUGACUCAAUAGUCCGUACGUUCCCGG [8491-94_29]
All U = NapdU, SB18T0.01, 37C
  Kd: 0.0581 nM

## ACTCCAGCAACUUGACUCAAUAGUCCGUACGUUUAUGCGAGAACAGAGGA [8491-386_3]
[1]
  Kd: 0.104 nM

## ACTCCCCGGUGACUCAAUAGUCCGUACGUUCCCGGUCCGAACGC [8491-94_5]
All U = NapdU, SB18T0.01, 37C
  Kd: 0.0298 nM

## ACTCCGAGCAUUGACUCAAUAGUCCGUACGUUUUACGCGUGAGGA [8491-407_3]
[1]
  Kd: 0.208 nM

## ACTCCAUGUCGGCGUUUGGCUCAAUAGUCCGUACGUUUUACGCGUGAGGA [8491-389_3]
[1]
  Kd: 0.0295 nM

## CGGUGACUCAAUAGUCCGUACGUUCCCG [8491-94_70]
P = NapdU (all U), 2'-OMe P12, SB18T0.01, 5 mM MgCl2, 37 C
  Kd: 0.338 nM

## ACTCCCUUAAAAGGGUCGUUGACUCCAUAGUCCGUACGUUUCCGAGAGGA [8491-394_3]
[1]
  Kd: 0.448 nM

## CGGUGACUCAAUAGUCCGUACGUUCCCG [8491-94_74]
P = NapdU (all U), 2'-OMe C16, SB18T0.01, 5 mM MgCl2, 37 C
  Kd: 0.192 nM

## CGGUGACUCAAUAGUCCGUACGUUCCCG [8491-94_80]
P = NapdU (all U), 2'-OMe G22, SB18T0.01, 5 mM MgCl2, 37 C
  Kd: 0.0678 nM

## CGGUGACUCAAUAGUCCGUACGUUCCCG [8491-94_61]
P = NapdU (all U), 2'-OMe G3, SB18T0.01, 5 mM MgCl2, 37 C
  Kd: 0.0237 nM

## CCGUGACUCAAUAGUCCGUACGUUCCCGG [8491-94_33]
All U = NapdU, C3-spacer replaces G4, SB18T0.01, 37C
  Kd: 0.245 nM

## GGGUGACUCAAUAGUCCGUACGUUCCCC [8491-94_127]
All U = NapdU, 2'-OMe at 1,2,3,5,7,9,10,13,19,20,22-28, SB18T0.01, 37C
  Kd: 0.045 nM

## CGGUGACUCAAUAGUCCGUACGUUCCCGG [8491-94_31]
All U = NapdU, C3-spacer replaces C2, SB18T0.01, 37C
  Kd: 0.14 nM

## CCCGGUGACUCAAUAGUCCGUACGUUCCCGGUCCGAACGCGGAGGA [8491-94_22]
All U = NapdU, SB18T0.01, 37C
  Kd: 0.103 nM

## CCCCGGUGACUCAAUAGUCCGUACGUUCCCGGUCCGAACGCGGAGGA [8491-94_8]
All U = NapdU, SB18T0.01, 37C
  Kd: 0.0369 nM

## CGGUGACUCAAUAGUCCGUACGUUCCCG [8491-94_65]
P = NapdU (all U), 2'-OMe C7, SB18T0.01, 5 mM MgCl2, 37 C
  Kd: 0.0316 nM

## CCGGUGACUCAAUAGUCCGUACGUUCCGG [8491-94_50]
All U = NapdU, C3-spacer replaces C28, SB18T0.01, 37C
  Kd: 0.448 nM

## TGGUGACUCAAUAGUCGUACGUUCCCA [8491-94_129]
All P = NapdU, T1 = dT, 2'-OMe at 2,3,5,7,9,10,13,19,20,22-28, C3-spacer replaces C17, SB18T0.01, 37C
  Kd: 0.0179 nM

## ACTCCCCGGUGACUCAAUAGUCCGUACGUUCC [8491-94_20]
All U = NapdU, SB18T0.01, 37C
  Kd: 1.14 nM

## CGGUGACUCAAUAGUCCGUACGUUCCCG [8491-94_64]
All U = NapdU, 2'-OMe at A6, SB18T0.01, 37C
  Kd: 0.512 nM

## ACTCCCAAGCCUCUCGGUUUGGCUAAAUAGUCCGUACGUUUUCACGAGGA [8491-408_3]
[1]
  Kd: 0.161 nM

## CGGUGACUCAAUAGUCCGUACGUUCCCG [8491-94_71]
P = NapdU (all U), 2'-OMe A13, SB18T0.01, 5 mM MgCl2, 37 C
  Kd: 0.0256 nM

## CGGUGACUCAAUAGUCCGUACGUUCCCG [8491-94_72]
All U = NapdU, 2'-OMe at G14, SB18T0.01, 37C
  Kd: 6.17 nM

## TGGUGACUCAAUAGUCGUATGUUCCCA [8491-94_131]
All P = NapdU, T = dT, 2'-OMe at 2,3,5,7,9,10,13,19,20,22-28, C3-spacer replaces C17, SB18T0.01, 37C
  Kd: 5.64 nM

## CCGGUGACUCAAUGUCCGUACGUUCCCGG [8491-94_40]
All U = NapdU, C3-spacer replaces A14, SB18T0.01, 37C
  Kd: 1.99 nM

## CGGUGACUCAAUAGUCGUACGUUCCCG [8491-94_98]
All U = NapdU, 2'-OMe at 1,2,3,5,7,9,10,13,19,20,22-28, C3-spacer replaces C17, SB18T0.01, 37C
  Kd: 0.095 nM

## ACTCCGUCUGGCUAACUUAGUCCGUACGUUCGUGAGCGUGAUUAUGAGGA [8491-397_3]
[1]
  Kd: 3.11 nM

## ACTCCCCGGTGACUCAAUAGUCCGUACGUUCCCGGUCCGAACGCGGAGGA [8491-94_11]
[2]
  Kd: 29.5 nM

## GGGUGACUCAAUAGUCGUACGUUCCCC [8491-94_134]
All P = NapdU, 2'-OMe at 1,2,3,5,7,9,10,13,19,20,22-28, C3-spacer replaces C17, SB18T0.01, 37C
  Kd: 0.107 nM

## ACTCCGAGCAUUGACUCAAUAGUCCGUACGUUUUUUUGGGCCGGGGGGGCAGGAGGA [8491-403_3]
All U in listing = NapdU, printed as 1.53-10, SB18T0.01, 37C
  Kd: 0.153 nM

## CCGGUGACUCAAUAGUCCGUACGUUCCGG [8491-94_49]
All U = NapdU, C3-spacer replaces C27, SB18T0.01, 37C
  Kd: 0.266 nM

## CGGUGACUCAAUAGUCCGUACGUUCCCGGUCCGAACGCGGAGGA [8491-94_9]
All U = NapdU, SB18T0.01, 37C
  Kd: 0.243 nM

## CGGUGACUCAAUAGUCCGUACGUUCCCG [8491-94_75]
P = NapdU (all U), 2'-OMe C17, SB18T0.01, 5 mM MgCl2, 37 C
  Kd: 0.214 nM

## ACTCCCUAACACGGCCGAGUUGACUCCCAUAGUCCGUACGUUUGCGAGGA [8491-387_3]
[1]
  Kd: 0.519 nM

## CGGUGACUCAAUAGUCCGUACGUUCCCG [8491-94_60]
P = NapdU (all U), 2'-OMe G2, SB18T0.01, 5 mM MgCl2, 37 C
  Kd: 0.0537 nM

## ACTCCCCGGUGACUCAAUAGUCCGUACGUU [8491-94_21]
All U = NapdU, SB18T0.01, 37C
  Kd: 0.249 nM

## ACTCCCCGGUGACUCAAUAGUCCGUACGUTCCCGGUCCGAACGCGGAGGA [8491-94_17]
[2]
  Kd: 2.88 nM

## CCGGUGAUCAAUAGUCCGUACGUUCCCGG [8491-94_36]
All U = NapdU, C3-spacer replaces C8, SB18T0.01, 37C
  Kd: 0.0315 nM

## CGGUGACUCAAUAGUCCGUACGUUCCCG [8491-94_78]
P = NapdU (all U), 2'-OMe A20, SB18T0.01, 5 mM MgCl2, 37 C
  Kd: 0.0718 nM

## CCGGUGCUCAAUAGUCCGUACGUUCCCGG [8491-94_35]
All U = NapdU, C3-spacer replaces A7, SB18T0.01, 37C
  Kd: 5.67 nM

## CGGUGACUCAAUAGUCGUATGUUCCCG [8491-94_133]
All P = NapdU, T = dT, 2'-OMe at 1,2,3,5,7,9,10,13,19,20 and all residues after T21, C3-spacer replaces C17, SB18T0.01, 37C
  Kd: 5.06 nM

## CGGUGACUCAAUAGUCCGUACGUUCCCG [8491-94_67]
P = NapdU (all U), 2'-OMe C9, SB18T0.01, 5 mM MgCl2, 37 C
  Kd: 0.0699 nM

## UGGUGACUCAAUAGUCGUACAUUCCCA [8491-94_138]
All P = NapdU, U1 = 2'-OMe-U, 2'-OMe at 1,2,3,5,7,9,10,13,19,20,22-28, C3-spacer replaces C17, SB18T0.01, 37C
  Kd: 18.2 nM

## CGGUGACUCAAUAGUCCGUACGUUCCCG [8491-94_82]
All U = NapdU, 2'-OMe at NapdU24, SB18T0.01, 37C
  Kd: 0.0118 nM

## CCGGUGACUCAAUAGUCCGUACGUUCCCG [8491-94_51]
All U = NapdU, C3-spacer replaces G29, SB18T0.01, 37C
  Kd: 0.227 nM

## CGGUGACUCAAUAGUCCGUACGUUCCCG [8491-94_81]
P = NapdU (all U), 2'-OMe P23, SB18T0.01, 5 mM MgCl2, 37 C
  Kd: 0.0243 nM

## ACTCCACGGUGACUCCAUAGUCCGUACGUUCCCGCGGACGCACCGAGGA [8491-388_3]
[1]
  Kd: 0.71 nM

## CGGUGACUCAAUAGUCCGUACGUUCCCG [8491-94_83]
P = NapdU (all U), 2'-OMe C25, SB18T0.01, 5 mM MgCl2, 37 C
  Kd: 0.0488 nM

## CGGUGAUCAAUAGUCGUACGUUCCG [8491-94_102]
All U = NapdU, 2'-OMe at 1,2,3,5,10,13,26,27,28, C3-spacer replaces C7, C17, C25, SB18T0.01, 37C
  Kd: 0.0603 nM

## CCGGUGACUCAAUAGUCCGUACGUUCCGG [8491-94_48]
All U = NapdU, C3-spacer replaces C26, SB18T0.01, 37C
  Kd: 0.0302 nM

## TGGUGACUCAAUAGUCCGUACGUUCCCA [8491-94_128]
All P = NapdU, T1 = dT, 2'-OMe at 2,3,5,7,9,10,13,19,20,22-28, SB18T0.01, 37C
  Kd: 0.038 nM

## ACTCCAUGUCGGCGUUUGACUCAAUAGUCCGUACGUUUGGCCGGGCAGGGGAGGA [8491-405_3]
[1]
  Kd: 0.159 nM

## CGGUGACUCAAUAGUCCGUACGUUCCCG [8491-94_96]
All U = NapdU, 2'-OMe at 1,2,3,5,7,9,10,13,19,20,23-28, SB18T0.01, 37C
  Kd: 0.0364 nM

## CGGUGACUCAAUAGUCCGUACGUUCCCG [8491-94_76]
All U = NapdU, 2'-OMe at G18, SB18T0.01, 37C
  Kd: 0.93 nM

## CGGUGAUAAUAGUCGUACGUUCCG [8491-94_55]
All U = NapdU, C3-spacer replaces C7, C9, C17, C25, SB18T0.01, 37C
  Kd: 0.0415 nM

## CGGUGACUCAAUAGUCCGUACGUUCCCG [8491-94_73]
All U = NapdU, 2'-OMe at NapdU15, SB18T0.01, 37C
  Kd: 1.32 nM

## ACTCCCCGGUGACTCAAUAGUCCGUACGUUCCCGGUCCGAACGCGGAGGA [8491-94_12]
[2]
  Kd: 8.57 nM

## ACTCCUUGACUCGAUAGUCCGUACGUUUGCGGAAUACCAGCUGACGAGGA [8491-400_3]
[1]
  Kd: 1.2 nM

## CCCCGGUGACUCAAUAGUCCGUACGUUCCCGGUCC [8491-94_24]
All U = NapdU, SB18T0.01, 37C
  Kd: 0.0535 nM

## ACTCCCUAUGAGGGCUGAUUCAAUAGUCAGUACGUUCGCCCCAUCGAGGA [8491-399_3]
[1]
  Kd: 8.61 nM

## CCGGUGACUCAAUAUCCGUACGUUCCCGG [8491-94_41]
All U = NapdU, C3-spacer replaces G15, SB18T0.01, 37C
  Kd: 0.598 nM

## CGGUGACUCAAUAGUCCGUACGUUCCCG [8491-94_88]
All U = NapdU, 2'-OMe at 1,3,5,7,13,28, SB18T0.01, 37C
  Kd: 0.0248 nM

## CGGUGACUCAAUAGUCCGUACGUUCCCG [8491-94_101]
All U = NapdU, 2'-OMe at 1,2,3,5,7,9,10,13,20,22,25-28, SB18T0.01, 37C
  Kd: 0.219 nM

## UGGUGACUCAAUAGUCCGUACAUUCCCA [8491-94_139]
All P = NapdU, U1 = 2'-OMe-U, 2'-OMe at 1,2,3,5,7,9,10,13,19,20,22-28, SB18T0.01, 37C
  Kd: 26.7 nM
